These results are taken from patent publication US20050037969A1 (ARBOR VITA, published 2005).

To fix the notation:
T1: KIAA0807 (PDZ domain)-GST fusion protein (human, UniProt Q6P0Q8 1104-1192)
T1 construct: also called K807; KIAA807; not shown: glutathione S-transferase encoded by vector pGEX-3X (Pharmacia)
T1 sequence: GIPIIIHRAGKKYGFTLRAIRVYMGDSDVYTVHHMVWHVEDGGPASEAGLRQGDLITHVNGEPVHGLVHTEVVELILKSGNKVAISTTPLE

T2: GEF PDZ-GST fusion protein (Homo sapiens (Human), UniProt Q8TEU7 293-400)
T2 construct: The label GEF is not explained in the excerpts
T2 sequence: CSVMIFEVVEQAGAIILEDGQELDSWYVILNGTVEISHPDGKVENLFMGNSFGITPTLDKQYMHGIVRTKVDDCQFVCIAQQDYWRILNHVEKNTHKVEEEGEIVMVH

T3: GST-KIAA0303 PDZ domain fusion protein (Homo sapiens (Human), UniProt O15021 1138-1228)
T3 construct: also called K303; not shown: glutathione S-transferase encoded by vector pGEX-3X (Pharmacia)
T3 sequence: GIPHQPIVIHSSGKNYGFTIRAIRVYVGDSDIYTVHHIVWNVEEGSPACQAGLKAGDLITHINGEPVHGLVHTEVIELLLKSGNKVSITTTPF

T4: GST-AF6 PDZ domain fusion protein (Homo sapiens (Human), UniProt P55196 1001-1093)
T4 construct: also called af-6 protein; not shown: glutathione S-transferase encoded by vector pGEX-3X (Pharmacia)
T4 sequence: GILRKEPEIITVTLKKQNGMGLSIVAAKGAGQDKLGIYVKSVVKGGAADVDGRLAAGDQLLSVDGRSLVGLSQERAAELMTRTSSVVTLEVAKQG

T5: X11β PDZ-GST fusion protein (Rattus norvegicus (Rat), UniProt O35431 560-745)
T5 construct: Order of GST and PDZ part and limits not seen in the excerpts
T5 chain: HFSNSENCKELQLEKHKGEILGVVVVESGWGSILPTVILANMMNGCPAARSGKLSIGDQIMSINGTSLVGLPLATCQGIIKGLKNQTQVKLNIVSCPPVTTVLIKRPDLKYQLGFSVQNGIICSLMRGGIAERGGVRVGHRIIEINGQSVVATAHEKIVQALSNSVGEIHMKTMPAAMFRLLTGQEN

T6: GST-cytohesin binding protein PDZ domain fusion protein (Homo sapiens (Human), UniProt O60759 74-165)
T6 construct: also called CBP; not shown: glutathione S-transferase encoded by vector pGEX-3X (Pharmacia)
T6 sequence: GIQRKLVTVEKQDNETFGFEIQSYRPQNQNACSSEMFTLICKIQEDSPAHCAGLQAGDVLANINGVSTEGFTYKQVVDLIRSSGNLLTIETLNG

T7: MINT3 PDZ-GST fusion protein
T7 construct: Order of GST and PDZ part and limits not seen in the excerpts
T7 chain: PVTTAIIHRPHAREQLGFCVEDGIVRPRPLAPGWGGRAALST

T8: GST-DLG5 (p-dlg) PDZ domain fusion protein (Human, UniProt Q8TDM6 1343-1583)
T8 construct: also called Human discs large protein p-dlg; not shown: glutathione S-transferase encoded by vector pGEX-3X (Pharmacia)
T8 sequence: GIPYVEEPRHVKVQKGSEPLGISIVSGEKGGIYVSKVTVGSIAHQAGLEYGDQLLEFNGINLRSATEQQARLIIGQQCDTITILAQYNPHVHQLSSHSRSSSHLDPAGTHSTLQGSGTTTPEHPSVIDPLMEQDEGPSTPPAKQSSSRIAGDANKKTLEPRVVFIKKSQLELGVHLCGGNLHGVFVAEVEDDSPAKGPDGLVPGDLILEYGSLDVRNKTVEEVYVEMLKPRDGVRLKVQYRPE

T9: K858 PDZ-GST fusion protein (Homo sapiens (Human), UniProt Q8WWI1 1038-1131)
T9 construct: Order of GST and PDZ part and limits not seen in the excerpts
T9 sequence: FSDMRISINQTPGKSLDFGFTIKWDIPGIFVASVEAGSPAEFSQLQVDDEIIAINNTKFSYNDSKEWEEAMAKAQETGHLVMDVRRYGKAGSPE

T10: GST-TAX-IP40 PDZ domain fusion protein (human, UniProt Q6B4M5 150-252 (rat entry))
T10 construct: also called TAX40; not shown: glutathione S-transferase encoded by vector pGEX-3X (Pharmacia)
T10 sequence: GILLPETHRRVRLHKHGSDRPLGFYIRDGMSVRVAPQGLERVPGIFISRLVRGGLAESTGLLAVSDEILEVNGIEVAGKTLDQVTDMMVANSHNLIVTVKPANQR

T11: TAX-IP2L PDZ-GST fusion protein (Homo sapiens (Human), UniProt Q8TF64 107-197)
T11 construct: Order of GST and PDZ part and limits not seen in the excerpts
T11 sequence: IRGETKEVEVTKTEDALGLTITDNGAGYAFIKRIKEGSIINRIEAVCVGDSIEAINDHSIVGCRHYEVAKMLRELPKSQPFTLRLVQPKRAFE

T12: GST-RGS12 PDZ domain fusion protein (human, UniProt O14924 17-85)
T12 construct: also called human regulator of G-protein signalling 12; not shown: glutathione S-transferase encoded by vector pGEX-3X (Pharmacia)
T12 sequence: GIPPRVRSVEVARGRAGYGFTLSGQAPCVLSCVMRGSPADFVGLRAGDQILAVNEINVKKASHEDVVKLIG

T13: GST-CASK PDZ domain fusion protein (Homo sapiens, UniProt O14936 486-575)
T13 construct: also called Homo sapiens CASK protein
T13 sequence: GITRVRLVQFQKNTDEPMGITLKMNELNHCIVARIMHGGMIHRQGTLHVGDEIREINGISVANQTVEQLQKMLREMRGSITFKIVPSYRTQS

T14: ConEn PDZ-GST fusion protein (Homo sapiens (Human), UniProt Q969H4 193-287)
T14 construct: The label ConEn is not explained in the excerpts
T14 sequence: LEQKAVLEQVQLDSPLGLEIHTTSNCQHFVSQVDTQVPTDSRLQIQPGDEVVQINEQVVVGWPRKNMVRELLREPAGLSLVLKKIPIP

Ends that are not written are not given here. * marks the point of attachment. Biotin = O=C1N[C@H]2[C@H](CS[C@H]2CCCCC(=O)*)N1

T15 sequence (Q92743 other isoform, or with tags, fused parts or gaps limits assumed): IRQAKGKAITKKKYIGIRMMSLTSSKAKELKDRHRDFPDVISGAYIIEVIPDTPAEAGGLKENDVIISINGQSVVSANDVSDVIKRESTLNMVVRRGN

For the first test, the target named is T1, KIAA0807 (PDZ domain)-GST fusion protein. Put plainly: A/G assays.
With Biotin-TREDIYVNYPTFSRRPKTRV [DNAM-1 C-terminal peptide AA22L, biotinylated], the binding result is “no binding”.
Take Biotin-QGDPALQDAGDSSRKEYFI (also called GC) [Glycophorin C C-terminal peptide AA37L, biotinylated]: the binding result is “no binding”.
For Biotin-EVICYIEKPGVETLEDSVF [CDW125 (IL5R) C-terminal peptide AA28L, biotinylated], the binding result is listed as “no binding”.

In the next test the target is T2, GEF PDZ-GST fusion protein. Put plainly: A/G assays.
With Biotin-TREDIYVNYPTFSRRPKTRV [DNAM-1 C-terminal peptide AA22L, biotinylated], the binding result is reported as “no binding”.
As to Biotin-QGDPALQDAGDSSRKEYFI (also called GC) [Glycophorin C C-terminal peptide AA37L, biotinylated], the binding result is recorded as “no binding”.
With Biotin-EVICYIEKPGVETLEDSVF [CDW125 (IL5R) C-terminal peptide AA28L, biotinylated], the binding result is recorded as “no binding”.

A further test has as its target T3, GST-KIAA0303 PDZ domain fusion protein. Put plainly: A/G assays.
Turning to Biotin-TREDIYVNYPTFSRRPKTRV [DNAM-1 C-terminal peptide AA22L, biotinylated], the binding result is listed as “no binding”.
On the same count and under the same terms, then Biotin-QGDPALQDAGDSSRKEYFI (also called GC) [Glycophorin C C-terminal peptide AA37L, biotinylated], with “no binding”; and Biotin-EVICYIEKPGVETLEDSVF [CDW125 (IL5R) C-terminal peptide AA28L, biotinylated], with “no binding”.

For a further test, the target named is T4, GST-AF6 PDZ domain fusion protein. Put plainly: A/G assays.
As to Biotin-EVICYIEKPGVETLEDSVF [CDW125 (IL5R) C-terminal peptide AA28L, biotinylated], the binding result is “no binding”.

In the next test the target is T5, X11β PDZ-GST fusion protein. Put plainly: A/G assays.
Biotin-TREDIYVNYPTFSRRPKTRV [DNAM-1 C-terminal peptide AA22L, biotinylated]: the binding result is “no binding”.
For Biotin-QGDPALQDAGDSSRKEYFI (also called GC) [Glycophorin C C-terminal peptide AA37L, biotinylated], the binding result is reported as “no binding”.
As to Biotin-EVICYIEKPGVETLEDSVF [CDW125 (IL5R) C-terminal peptide AA28L, biotinylated], the binding result is “no binding”.

In the next test the target is T6, GST-cytohesin binding protein PDZ …. Put plainly: A/G assays.
As for Biotin-TREDIYVNYPTFSRRPKTRV [DNAM-1 C-terminal peptide AA22L, biotinylated], the binding result is listed as “no binding”.
As for Biotin-QGDPALQDAGDSSRKEYFI (also called GC) [Glycophorin C C-terminal peptide AA37L, biotinylated], the binding result is recorded as “no binding”.
With Biotin-EVICYIEKPGVETLEDSVF [CDW125 (IL5R) C-terminal peptide AA28L, biotinylated], the binding result is “no binding”.

For the next test, the target named is T7, MINT3 PDZ-GST fusion protein. Put plainly: A/G assays.
For the molecule Biotin-TREDIYVNYPTFSRRPKTRV [DNAM-1 C-terminal peptide AA22L, biotinylated], the binding result is “no binding”.
For the molecule Biotin-QGDPALQDAGDSSRKEYFI (also called GC) [Glycophorin C C-terminal peptide AA37L, biotinylated], the binding result was “no binding”.
As for Biotin-EVICYIEKPGVETLEDSVF [CDW125 (IL5R) C-terminal peptide AA28L, biotinylated], the binding result is on record as “no binding”.

The target of a further test is T8, GST-DLG5 (p-dlg) PDZ domain fusion …. Put plainly: A/G assays.
Take Biotin-TREDIYVNYPTFSRRPKTRV [DNAM-1 C-terminal peptide AA22L, biotinylated]: the binding result is “no binding”.
Still for that read-out and setting: then Biotin-QGDPALQDAGDSSRKEYFI (also called GC) [Glycophorin C C-terminal peptide AA37L, biotinylated], with “no binding”; and Biotin-EVICYIEKPGVETLEDSVF [CDW125 (IL5R) C-terminal peptide AA28L, biotinylated], with “no binding”.

The target of a further test is T9, K858 PDZ-GST fusion protein. Put plainly: A/G assays.
In the case of Biotin-TREDIYVNYPTFSRRPKTRV [DNAM-1 C-terminal peptide AA22L, biotinylated], the binding result was “no binding”.
On to Biotin-QGDPALQDAGDSSRKEYFI (also called GC) [Glycophorin C C-terminal peptide AA37L, biotinylated], for which the binding result is listed as “no binding”.
Biotin-EVICYIEKPGVETLEDSVF [CDW125 (IL5R) C-terminal peptide AA28L, biotinylated]: the binding result was “no binding”.

A further test concerns the target T15, NSP PDZ-GST fusion protein (Homo sapiens (Human), UniProt Q92743 370-466).
T15 construct: The label NSP is not explained in the excerpts
Put plainly: A/G assays.
For the molecule Biotin-TREDIYVNYPTFSRRPKTRV [DNAM-1 C-terminal peptide AA22L, biotinylated], the binding result is listed as “no binding”.
The same measure, in the same setting: then Biotin-QGDPALQDAGDSSRKEYFI (also called GC) [Glycophorin C C-terminal peptide AA37L, biotinylated], with “no binding”; and Biotin-EVICYIEKPGVETLEDSVF [CDW125 (IL5R) C-terminal peptide AA28L, biotinylated], with “no binding”.

Another test addresses T10, GST-TAX-IP40 PDZ domain fusion protein. Put plainly: A/G assays.
Turning to Biotin-TREDIYVNYPTFSRRPKTRV [DNAM-1 C-terminal peptide AA22L, biotinylated], the binding result is reported as “no binding”.
In the case of Biotin-QGDPALQDAGDSSRKEYFI (also called GC) [Glycophorin C C-terminal peptide AA37L, biotinylated], the binding result is “no binding”.
On to Biotin-EVICYIEKPGVETLEDSVF [CDW125 (IL5R) C-terminal peptide AA28L, biotinylated], for which the binding result is given as “no binding”.

For a further test, the target named is T11, TAX-IP2L PDZ-GST fusion protein. Put plainly: A/G assays.
With Biotin-TREDIYVNYPTFSRRPKTRV [DNAM-1 C-terminal peptide AA22L, biotinylated], the binding result was “no binding”.
With Biotin-QGDPALQDAGDSSRKEYFI (also called GC) [Glycophorin C C-terminal peptide AA37L, biotinylated], the binding result is listed as “no binding”.
Turning to Biotin-EVICYIEKPGVETLEDSVF [CDW125 (IL5R) C-terminal peptide AA28L, biotinylated], the binding result is recorded as “no binding”.

Another test addresses T12, GST-RGS12 PDZ domain fusion protein. Put plainly: A/G assays.
As to Biotin-QGDPALQDAGDSSRKEYFI (also called GC) [Glycophorin C C-terminal peptide AA37L, biotinylated], the binding result was “no binding”.

A further test concerns the target T13, GST-CASK PDZ domain fusion protein. Put plainly: A/G assays.
In the case of Biotin-TREDIYVNYPTFSRRPKTRV [DNAM-1 C-terminal peptide AA22L, biotinylated], the binding result is on record as “no binding”.
As for Biotin-QGDPALQDAGDSSRKEYFI (also called GC) [Glycophorin C C-terminal peptide AA37L, biotinylated], the binding result is listed as “no binding”.
On to Biotin-EVICYIEKPGVETLEDSVF [CDW125 (IL5R) C-terminal peptide AA28L, biotinylated], for which the binding result is recorded as “no binding”.

A further test has as its target T14, ConEn PDZ-GST fusion protein. Put plainly: A/G assays.
Regarding Biotin-TREDIYVNYPTFSRRPKTRV [DNAM-1 C-terminal peptide AA22L, biotinylated], the binding result is listed as “no binding”.
On to Biotin-QGDPALQDAGDSSRKEYFI (also called GC) [Glycophorin C C-terminal peptide AA37L, biotinylated], for which the binding result is given as “no binding”.
Still for that read-out and setting: then Biotin-EVICYIEKPGVETLEDSVF [CDW125 (IL5R) C-terminal peptide AA28L, biotinylated], with “no binding”.
